The source of these data is publication PMC4220489 (Nature Communications, 2014).

By koff is commonly meant the rate constant with which the complex falls apart. The stoichiometry N is the number of molecules, sites or subunits per partner or assembly.

In assay [1] the target is T1, IL-12 subunit beta (p40), as in the recombinant human IL-23 of the crystal structure (human, UniProt P29460 23-328, C-mannosylated Trp319; N-linked glycans limited by kifunensine and trimmed with EndoH).
T1 construct: signal peptide in the construct; IL-12 subunit beta (p40), human, residues 1-328, cDNA as NCBI NM_002187.2 (silent codon change at Asn248); The p40 chain of m3, written alone for the pairs of the crystal structure; also called IL-23 p40; source: HEK-293T, co-transfected with p19-His, purified as IL-23 (Talon IMAC, SEC)
T1 sequence (looked up): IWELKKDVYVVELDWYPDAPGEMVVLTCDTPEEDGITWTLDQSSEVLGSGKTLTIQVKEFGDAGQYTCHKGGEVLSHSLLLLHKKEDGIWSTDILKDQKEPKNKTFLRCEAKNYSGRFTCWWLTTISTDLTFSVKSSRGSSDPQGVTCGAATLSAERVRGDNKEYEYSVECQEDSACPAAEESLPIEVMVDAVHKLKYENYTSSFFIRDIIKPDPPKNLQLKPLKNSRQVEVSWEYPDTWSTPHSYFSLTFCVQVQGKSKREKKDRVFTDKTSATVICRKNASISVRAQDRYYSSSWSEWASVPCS
Briefly: crystal structure; IL-23:MA12_B2fC complex, two crystal forms (PEG 3,350 with Na2SO4 or potassium formate), molecular replacement with PDB 3DUH. The note with it: both partners purified.

Assay [2] concerns the target T2, recombinant human IL-23 (p19-His co-expressed with p40 in HEK-293T) (human, UniProt Q9NPF7 20-189; P29460 23-328, N-linked glycans limited by kifunensine and trimmed with EndoH | C-mannosylated Trp319; N-linked glycans limited by kifunensine and trimmed with EndoH).
T2 chain 1: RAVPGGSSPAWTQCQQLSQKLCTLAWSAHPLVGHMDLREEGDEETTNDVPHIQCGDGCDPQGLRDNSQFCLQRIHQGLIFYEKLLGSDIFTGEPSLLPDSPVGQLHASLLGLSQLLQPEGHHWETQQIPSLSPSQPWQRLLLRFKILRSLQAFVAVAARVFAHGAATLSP
T2 chain 2: T1 sequence (looked up)
Briefly: SPR.

Assay [3] deals with T2, recombinant human IL-23 (p19-His …). Kind of assay: SPR. Background: In SPR one partner is held on a chip, and binding of the other changes the refractive index at the surface.
The target of assay [4] is recombinant human IL-23 (p19-His co-expressed with p40 in HEK-293T) (human) (UniProt Q9NPF7). Briefly: ITC; VP-ITC, 30 °C, 20 mM Hepes, 150 mM NaCl, pH 7.4; IL-23 4.9 μM in the cell, MA12 53.2 μM in the syringe; one binding site model; apparent.

B1: IL-23 subunit alpha (p19), as in the recombinant human IL-23 of the crystal structure (natural protein, UniProt Q9NPF7 20-189, looked up)
chain: T2 chain 1
modifications: N-linked glycans limited by kifunensine and trimmed with EndoH
notes: signal peptide in the construct; IL-23 subunit alpha (p19), human, residues 1-189, cDNA as NCBI NM_016584.2; residue numbers as in UniProt; The p19 chain of m3, written alone for the pairs of the crystal structure; also called IL-23 p19; source: HEK-293T, co-transfected with p40, purified as IL-23 (Talon IMAC, SEC)
Consider B1, for which the binding result in assay [1] is reported as “binds”.

B2: MA12_B2fC Alphabody (His-tag removed, cysteine blocked) (designed binder)
chain: SIQEIQKEIAQIQAVIAGIQKYIYTMTGGSGGGSGGGSGGGSGMSIEEIQKQIAAIQCQIAAIQKQIYAMTGGSGGGSGGGSGGGSGMSIEEIQKQIAAIQEQILAIYKQIMAMVT
modifications: free cysteine blocked with iodoacetamide
Take B2: the koff in assay [2] was found to be 0.000122 s⁻¹. Moreover, the Kd in assay [3] was determined as 0.463 nM. Moreover, in assay [4], the Kd turned out to be 0.35 nM and the stoichiometry N turned out to be 1.
